Experimental data reported in the supplement of paper PMC10567573.
± gives the standard deviation.

Assay: protein stability index of a GFP-peptide fusion (GPS, HEK-293T) (PSI 1-6); higher = more stable
[1] = treatment: DMSO, c terminus: a fixed tail appended
[2] = treatment: MLN4924 1 uM, 8 h, c terminus: a fixed tail appended
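Further: 24-mer peptide tiles fused after GFP, lentivirally expressed, FACS-sorted into six equal bins by GFP/DsRed ratio, decoded by Illumina sequencing, PSI is the read-weighted mean bin number.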

Sequence	protein stability index [1]	protein stability index [2]	protein stability index (treatment: DMSO, c terminus: native)	protein stability index (treatment: MLN4924 1 uM, 8 h, c terminus: native)
ILWDTLLRLCAWGLASWPLARGIH [POMT2]	2.823 ± 0.003	3.27 ± 1.2	–	–
INLEEKEKQIRSFLIEGPLINTIR [PLEKHN1]	2.5 ± 0.13	2.67 ± 0.31	–	–
INVNDLSFVTGSHVGELIIWDALD [WDR41]	2.22 ± 0.41	2.12 ± 0.2	–	–
IPIHGKGNFPTMEVKPKDIIHVVK [TENT5D]	2.86 ± 0.24	2.93 ± 0.2	–	–
IQEQPGQEQVAGGEAQPGLPQEDP [FEM1A]	5.58 ± 0.16	5.57 ± 0.16	–	–
IRKKLKDSGDVSNVIEKVKCILKT [RHOBTB3]	3.1 ± 0.51	2.72 ± 0.94	–	–
ISGVTKAISSPTVSRLTDTTKFTG [TPPP]	3.89 ± 0.27	3.85 ± 0.17	–	–
ISRLEQCGINANDVKKLEEAGFHT [RAD51]	3.58 ± 0.15	3.9 ± 0.11	–	–
ISSMADFWDFAQGPLLDSLYWTKW [PKD2L1]	2.85 ± 1.3	2.53 ± 1.6	–	–
ITTPIIDTFKVPKEMFTVGCCVFA [SLC6A17]	2.67 ± 0.59	2.86 ± 0.55	–	–
IVIFCLETLPELKDDKDFTGTVHR [KCNA1]	2.42 ± 0.46	2.16 ± 0.27	–	–
IVIQTYYRQWHAKIFVENLRRQKS [IQUB]	2.453 ± 0.011	3.12 ± 0.52	–	–
IWVPIKIGALTYFAQADALKGTLV [ACSBG2]	2.76 ± 0.71	3.08 ± 0.67	–	–
IYTNRYETNEEDKTLQEIYRKYRK [FBXO39]	2.96 ± 0.32	3.58 ± 0.61	–	–
KALNTFIDDLFAFVIKMPVMYRIG [CLPTM1]	3.02 ± 0.53	2.82 ± 0.5	–	–
KDEWHKVFDLPESLGGIRACTLTV [KLHL13]	2.89 ± 0.63	2.89 ± 0.83	–	–
KDLTEYLKVRSHDPEEAIRHDVIV [PDS5B]	3.26 ± 0.38	3.39 ± 0.14	–	–
KEAQYIRTELVEQAFRAIDRADYY [PCMTD2]	2.71 ± 0.27	2.88 ± 0.36	–	–
KEGEGEVGGEAVEVEEVENVQTEF [TRIM55]	5.716 ± 0.023	5.59 ± 0.37	–	–
KEHYLTFEKSRYETYIHLLAMKIK [PSD2]	3.28 ± 0.76	2.73 ± 0.94	–	–
KEQILEFLVLEQFLTILPEELQSW [ZNF232]	3.21 ± 0.27	2.85 ± 0.62	–	–
KEQSKELQMKLEKLREKERKKEAK [FAM50A]	5.02 ± 0.54	5.55 ± 0.16	–	–

Sequence	protein stability index [1]	protein stability index [2]	protein stability index (treatment: DMSO, c terminus: native)	protein stability index (treatment: MLN4924 1 uM, 8 h, c terminus: native)
KEQVLRKGTENLQRAQAEVLQSVR [FCHSD1]	4.5 ± 0.096	4.56 ± 0.27	–	–
KETVNVKTVCGYYTSAGTYGLDSV [GMCL1]	2.48 ± 0.29	2.68 ± 0.3	–	–
KGLSGGFGSRSLYSLGGVRSLNVA [KRT71]	2.58 ± 0.26	2.41 ± 0.39	–	–
KHLLNLGVEIDEINVYGNTALHIA [ANKRD44]	2.19 ± 0.34	2.07 ± 0.48	–	–
KHWREWGSHAQTSQIQSIRRIQQ [CRYBA1]	–	–	3.25 ± 0.69	3.19 ± 0.46
KINVNEIFYDLVRQINRKTPVPGK [RAP1B]	2.44 ± 0.4	2.25 ± 0.26	–	–
KKDTGHIYAMKILRKSDMLEKEQV [STK38L]	3.36 ± 0.39	3.54 ± 0.21	–	–
KKKRPPQPPEESQPPQSQAQVPPA [PLK2]	5.35 ± 0.23	5.46 ± 0.14	–	–
KKRYEEEINKRTAAENEFVLLKKD [KRT71]	5.07 ± 0.2	4.99 ± 0.27	–	–
KLEAEKRILQEKLDQPVSAPPSPR [CCDC6]	5.24 ± 0.26	5.21 ± 0.37	–	–
KLFFVDTGSKEKGLTKKRTKVQKK [NOP53]	3.26 ± 0.13	3.83 ± 0.54	–	–
KLFSTYLRPPHTSRGTSQTPNASS [LPCAT4]	3.17 ± 0.19	3.08 ± 0.32	–	–
KLPNDSRVERRFHFSQSLTVIHDF [FAF2]	2.17 ± 0.19	2.26 ± 0.44	–	–
KLVKVCNGHDCWSLISLSNNTGKN [TENT5D]	2.33 ± 0.24	2.34 ± 0.43	–	–
KMAAVSKASGRFGLLQGTSAETSG [SEPHS2]	3.94 ± 0.15	3.88 ± 0.25	–	–
KMNLYESFAQATQLGDLHTCLMMD [INTS3]	2.5 ± 0.2	2.58 ± 0.37	–	–
KMSLYSEADSGYGSYGGFASAPTT [TRIM9]	3.15 ± 0.36	3.18 ± 0.12	–	–
KMTLTQVSTWFANARRRLKKENKM [IRX6]	2.83 ± 0.29	3.02 ± 0.23	–	–
KNSLFPSPISSISPGLHSFTDHQR [KCNK9]	3.3 ± 0.25	3.27 ± 0.38	–	–
KPANILLDAHYHVKISDFGLAKCN [RIPK4]	2.33 ± 0.22	2.49 ± 0.23	–	–
KPISTKSQFLKHQQTHNIEKAHEC [ZNF649]	4.48 ± 0.27	4.41 ± 0.16	–	–
KPIVPTDGKRVIVVFHCEFSSERG [CDC25A]	2.64 ± 0.72	2.33 ± 0.28	–	–

Sequence	protein stability index [1]	protein stability index [2]	protein stability index (treatment: DMSO, c terminus: native)	protein stability index (treatment: MLN4924 1 uM, 8 h, c terminus: native)
KPSENHPLHNSGLLSLDPVQDKTP [MED27]	4.984 ± 0.04	5.02 ± 0.22	–	–
KQPLRKYVTPSDFDQLKQFLTFDK [EFHC1]	2.94 ± 0.18	3.02 ± 0.17	–	–
KRFASLSRFVETLVVADDKMAAFH [ADAMTS4]	2.25 ± 0.52	2.06 ± 0.58	–	–
KSSAQGPIPWFLPESRSLPSSPLR [PPEF2]	3.56 ± 0.53	3.56 ± 0.21	–	–
KSTSKYIYQTLFLNGENSDIKICA [GMCL1]	2.06 ± 0.65	3.41 ± 1.3	–	–
KTQEHTPTPDDHVFRWLAYSYAST [CPXM2]	2.14 ± 0.34	2.2 ± 0.3	–	–
KTSQLSYYYMGFYIHSCPKMKYKG [ATE1]	2.47 ± 1.2	2.25 ± 0.66	–	–
KVIERGERLDELQDKSESLSDNAT [VAMP4]	5.38 ± 0.13	5.33 ± 0.18	–	–
KWFGRKRTLSAFLCLGGLACLIVM [SLC22A15]	5.07 ± 0.21	5.17 ± 0.18	–	–
KWRKVGRSLQRGCRALRDPALDSL [TRADD]	2.19 ± 0.16	2.54 ± 0.13	–	–
KYNSARADFEQKMLDSALRFQAME [FCHO1]	3.5 ± 0.074	3.48 ± 0.27	–	–
LAESEFESAAFSQGSRSGVSGGSR [PHTF1]	4.83 ± 0.3	4.93 ± 0.32	–	–
LAKALLKRTAQAIEPYITNFFNQV [PDS5B]	2.58 ± 0.71	2.7 ± 0.72	–	–
LARRRRRRQARREAEADKPRRLGR [NOP53]	4.63 ± 0.093	4.75 ± 0.42	–	–
LASRIRSNKKMLLLVGGLPPGPDR [KLHL14]	2.32 ± 0.17	2.34 ± 0.42	–	–
LCLGGLACLIVMFLPEKKDTGVFA [SLC22A15]	3.44 ± 0.26	3.08 ± 0.67	–	–
LDEGMQIPSTQFDAAHPTNVQRLA [CTNNB1]	4.73 ± 0.12	4.7 ± 0.2	–	–
LDLILAILALELICSLICLLIYTV [TMEM192]	2.89 ± 0.55	3 ± 0.5	–	–
LDPAYTTLEFENVQVLTMGNDTSP [HNF4A]	5.58 ± 0.15	5.46 ± 0.18	–	–
LDVDTAAGGFQQRQGLKYCLPLTF [FBXO3]	2.42 ± 0.19	2.22 ± 0.45	–	–
LEERLQLQFEAEMARLQEEHGDQL [MTUS2]	5.4 ± 0.32	5.13 ± 0.17	–	–
